{
  "source": "patent US20260209789A1",
  "about": "“TRIGGER-INDUCIBLE MRNA CIRCULARIZATION” (WESTLAKE UNIVERSITY, priority 2022, published 2026)",
  "molecules": {"B1": {"name": "(scFv162)3-NSP3: bipartite STIF regulator (protein)", "chain": "MAEVQVQQSGAELVRSGASVKLSCTASGFNIKDYYMHWVKQRPEQGLEWIGWIDPANGNTKYDPKFQGKATITADTSSNTAYLQLSSLTSEDTAVYYCARWDWYFDVWGAGTTVTVSSGGGGSGGGGSGGGGSVFASGSGGGGDVASMAEVQVQQSGAELVRSGASVKLSCTASGFNIKDYYMHWVKQRPEQGLEWIGWIDPANGNTKYDPKFQGKATITADTSSNTAYLQLSSLTSEDTAVYYCARWDWYFDVWGAGTTVTVSSGGGGSGGGGSGGGGSVFASGSGGGGDVASMAEVQVQQSGAELVRSGASVKLSCTASGFNIKDYYMHWVKQRPEQGLEWIGWIDPANGNTKYDPKFQGKATITADTSSNTAYLQLSSLTSEDTAVYYCARWDWYFDVWGAGTTVTVSSGGGGSGGGGSGGGGSVFASGSGGGGDVASMLKMESTQQMASSIINTSFEAAVVAATSTLELMGIQYDYNEVYTRVKSKFDYVMDDSGVKNNLLGKAATIDQALNGKFGSAARNRNWMADTRTTARLDEDVNKLRMMLSSKGIDQKMRVLNACFNVKRVPGKSSSIIKCTRLMRDKIERGEVEVDDSFVEEKMEVDTIDWKSRYEQLEKRFESLKQRVNEKYTSWVQKAKKVNENMYSLQNVISQQQSQIADLQNYCNKLEVDLQNKISSLVSSVEWYLKSMELPDEIKTDIEQQLNSIDVINPINAIDDFESLIRNIILDYDRIFLMFKGLMRQCNYEYTYE"}, "B2": {"name": "(GNCR)3-NSP3: trigger-inducible STIF regulator (protein)", "chain": "MDIEKLCKKAEEEAKEAQEKADELRQRHPDSQAAEDAEDLANLAVAAVLTACLLAQEHPNADIAKLCIKAASEAAEAASKAAELAQRHPDSQAARDAIKLASQAARAVILAIMLAAENPNADIAKLCIKAASEAAEAASKAAELAQRHPDSQAARDAIKLASQAAEAVERAIWLAAENPNADIAKKCIKAASEAAEEASKAAEEAQRHPDSQKARDEIKEASQKAEEVKERCKSASGSGGGGDVASDIEKLCKKAEEEAKEAQEKADELRQRHPDSQAAEDAEDLANLAVAAVLTACLLAQEHPNADIAKLCIKAASEAAEAASKAAELAQRHPDSQAARDAIKLASQAARAVILAIMLAAENPNADIAKLCIKAASEAAEAASKAAELAQRHPDSQAARDAIKLASQAAEAVERAIWLAAENPNADIAKKCIKAASEAAEEASKAAEEAQRHPDSQKARDEIKEASQKAEEVKERCKSASGSGGGGDVASDIEKLCKKAEEEAKEAQEKADELRQRHPDSQAAEDAEDLANLAVAAVLTACLLAQEHPNADIAKLCIKAASEAAEAASKAAELAQRHPDSQAARDAIKLASQAARAVILAIMLAAENPNADIAKLCIKAASEAAEAASKAAELAQRHPDSQAARDAIKLASQAAEAVERAIWLAAENPNADIAKKCIKAASEAAEEASKAAEEAQRHPDSQKARDEIKEASQKAEEVKERCKSASGSGGGGDVASMLKMESTQQMASSIINTSFEAAVVAATSTLELMGIQYDYNEVYTRVKSKFDYVMDDSGVKNNLLGKAATIDQALNGKFGSAARNRNWMADTRTTARLDEDVNKLRMMLSSKGIDQKMRVLNACFNVKRVPGKSSSIIKCTRLMRDKIERGEVEVDDSFVEEKMEVDTIDWKSRYEQLEKRFESLKQRVNEKYTSWVQKAKKVNENMYSLQNVISQQQSQIADLQNYCNKLEVDLQNKISSLVSSVEWYLKSMELPDEIKTDIEQQLNSIDVINPINAIDDFESLIRNIILDYDRIFLMFKGLMRQCNYEYTYE"}, "B3": {"name": "(DocS)3-NSP3: bipartite STIF regulator (protein)", "chain": "MSTKLYGDVNDDGKVNSTDAVALKRYVLRSGISINTDNADLNEDGRVNSTDLGILKRYILKEIDTLPYKNASGSGGGGDVASMSTKLYGDVNDDGKVNSTDAVALKRYVLRSGISINTDNADLNEDGRVNSTDLGILKRYILKEIDTLPYKNASGSGGGGDVASMSTKLYGDVNDDGKVNSTDAVALKRYVLRSGISINTDNADLNEDGRVNSTDLGILKRYILKEIDTLPYKNASGSGGGGDVASMLKMESTQQMASSIINTSFEAAVVAATSTLELMGIQYDYNEVYTRVKSKFDYVMDDSGVKNNLLGKAATIDQALNGKFGSAARNRNWMADTRTTARLDEDVNKLRMMLSSKGIDQKMRVLNACFNVKRVPGKSSSIIKCTRLMRDKIERGEVEVDDSFVEEKMEVDTIDWKSRYEQLEKRFESLKQRVNEKYTSWVQKAKKVNENMYSLQNVISQQQSQIADLQNYCNKLEVDLQNKISSLVSSVEWYLKSMELPDEIKTDIEQQLNSIDVINPINAIDDFESLIRNIILDYDRIFLMFKGLMRQCNYEYTYE"}, "B4": {"name": "CCmut3-NSP3: bipartite STIF regulator (protein)", "chain": "MVDPVGFAEAWKAQFPDSEPPRMELRSVGDIEQELERAEARIRRNEQRVNQERFRMIYLETLLAKEKKSYDRASGSGGGGDVASMLKMESTQQMASSIINTSFEAAVVAATSTLELMGIQYDYNEVYTRVKSKFDYVMDDSGVKNNLLGKAATIDQALNGKFGSAARNRNWMADTRTTARLDEDVNKLRMMLSSKGIDQKMRVLNACFNVKRVPGKSSSIIKCTRLMRDKIERGEVEVDDSFVEEKMEVDTIDWKSRYEQLEKRFESLKQRVNEKYTSWVQKAKKVNENMYSLQNVISQQQSQIADLQNYCNKLEVDLQNKISSLVSSVEWYLKSMELPDEIKTDIEQQLNSIDVINPINAIDDFESLIRNIILDYDRIFLMFKGLMRQCNYEYTYE"}, "B5": {"name": "NSP3: rotaviral non-structural protein 3 (protein)", "chain": "LKMESTQQMASSIINTSFEAAVVAATSTLELMGIQYDYNEVYTRVKSKFDYVMDDSGVKNNLLGKAATIDQALNGKFGSAARNRNWMADTRTTARLDEDVNKLRMMLSSKGIDQKMRVLNACFNVKRVPGKSSSIIKCTRLMRDKIERGEVEVDDSFVEEKMEVDTIDWKSRYEQLEKRFESLKQRVNEKYTSWVQKAKKVNENMYSLQNVISQQQSQIADLQNYCNKLEVDLQNKISSLVSSVEWYLKSMELPDEIKTDIEQQLNSIDVINPINAIDDFESLIRNIILDYDRIFLMFKGLMRQCNYEYTYE"}, "B6": {"name": "(Coh2)3-NSP3: bipartite STIF regulator (protein)", "chain": "MVVVEIGKVTGSVGTTVEIPVYFRGVPSKGIANCDFVFRYDPNVLEIIGIDPGDIIVDPNPTKSFDTAIYPDRKIIVFLFAEDSGTGAYAITKDGVFAKIRATVKSSAPGYITFDEVGGFADNDLVEQKVSFIDGGVNVASGSGGGGDVASVVVEIGKVTGSVGTTVEIPVYFRGVPSKGIANCDFVFRYDPNVLEIIGIDPGDIIVDPNPTKSFDTAIYPDRKIIVFLFAEDSGTGAYAITKDGVFAKIRATVKSSAPGYITFDEVGGFADNDLVEQKVSFIDGGVNVASGSGGGGDVASVVVEIGKVTGSVGTTVEIPVYFRGVPSKGIANCDFVFRYDPNVLEIIGIDPGDIIVDPNPTKSFDTAIYPDRKIIVFLFAEDSGTGAYAITKDGVFAKIRATVKSSAPGYITFDEVGGFADNDLVEQKVSFIDGGVNVASGSGGGGDVASMLKMESTQQMASSIINTSFEAAVVAATSTLELMGIQYDYNEVYTRVKSKFDYVMDDSGVKNNLLGKAATIDQALNGKFGSAARNRNWMADTRTTARLDEDVNKLRMMLSSKGIDQKMRVLNACFNVKRVPGKSSSIIKCTRLMRDKIERGEVEVDDSFVEEKMEVDTIDWKSRYEQLEKRFESLKQRVNEKYTSWVQKAKKVNENMYSLQNVISQQQSQIADLQNYCNKLEVDLQNKISSLVSSVEWYLKSMELPDEIKTDIEQQLNSIDVINPINAIDDFESLIRNIILDYDRIFLMFKGLMRQCNYEYTYE"}},
  "key": {"nNS3": {"system": "nNS3", "conditions": "different amounts of overexpressed nNS3, 48 h"}, "GNCR: NS3a system": {"system": "GNCR: NS3a system", "assay": "Grazoprevir-inducible SEAP translation in HEK-293 cells (fold-change, dose-dependence, kinetics vs transcriptional switch)", "conditions": "three tandem GNCR and NS3a repeats", "from_the_text": "Optimization of an L7Ae-based grazoprevir-inducible gene switch. (A) Translational regulation by grazoprevir-dependent STIF association. […] (B) Translational regulation by different grazoprevir-dependent NSP3-fusion proteins. […] (C) Translational regulation by different grazoprevir-dependent L7Ae-fusion proteins.\nOptimized L7Ae- and MCP-based grazoprevir-inducible gene switch in mammalian cells. (A) Optimized grazoprevir-inducible regulation of SEAP translation. […] (B, C) Dose-dependent grazoprevir-inducible SEAP expression.\nComparative analysis of gene switches based on STIF-based translation and state-of-the-art transcription-centered designs. (A) Kinetics of grazoprevir-inducible SEAP expression. […] (B) Endpoint performance of grazoprevir-induced translational and transcriptional gene switch switches."}, "[1]": {"system": "STIF-specific target gene mRNA", "assay": "Translational regulation by constitutive bipartite STIF reconstitution (SEAP, NanoLuc) in HEK-293 cells", "type": "cell-based, human", "conditions": "48 h", "excerpt": "FIG. 8. Translational regulation by spontaneous assembly of bipartite STIFs. (A) Translational regulation through constitutive STIF reconstitution. […] Transfection of pcDNA3.1 (+) instead of NSP3-fusion proteins was used as a negative control. […] (B) Compatibility of STIF-mediated translational regulation with split-complementation approaches. […] For (−) conditions, pcDNA3.1 (+) was transfected instead of expression vectors.\nFIG. 9. Translational regulation through constitutive Coh2/DocS-mediated STIF reconstitution. (A) Site-specific translational activation by eIFBP overexpression. HEK-293 cells were (co-) transfected with an expression vector for SEAP-mRNA containing 24 tandem C/D-box-(left panel, pSL355) or MS2-box repeats in the 3′-UTR (right panel, pSL468), constitutive expression vectors for L7Ae (left) or MCP (right) fused to Coh2 (L7Ae-Coh2, pSL83; MCP-Coh2, pSL674) or EGFP (L7Ae-EGFP, pSL1078; MCP-EGFP, pSL435) and constitutive expression vectors for various chimeric Coh2-specific DocS-containing eIFBP fusions (PABP-DocS, pSL47; DocS-eIF4G, pSL87; DocS-eIF4E, pLZ312; DocS-NSP3, pSL66; DocS-VPg, pLZ311). Transfection of pcDNA3.1 (+) instead of DocS- or MCP-expressing vectors was used as a negative control. […] SEAP (left) and NanoLuc levels in culture supernatants (right) were quantified at 48 h post-transfection. […]"}, "BCR-ABL": {"system": "BCR-ABL", "sequence (as listed by the source)": "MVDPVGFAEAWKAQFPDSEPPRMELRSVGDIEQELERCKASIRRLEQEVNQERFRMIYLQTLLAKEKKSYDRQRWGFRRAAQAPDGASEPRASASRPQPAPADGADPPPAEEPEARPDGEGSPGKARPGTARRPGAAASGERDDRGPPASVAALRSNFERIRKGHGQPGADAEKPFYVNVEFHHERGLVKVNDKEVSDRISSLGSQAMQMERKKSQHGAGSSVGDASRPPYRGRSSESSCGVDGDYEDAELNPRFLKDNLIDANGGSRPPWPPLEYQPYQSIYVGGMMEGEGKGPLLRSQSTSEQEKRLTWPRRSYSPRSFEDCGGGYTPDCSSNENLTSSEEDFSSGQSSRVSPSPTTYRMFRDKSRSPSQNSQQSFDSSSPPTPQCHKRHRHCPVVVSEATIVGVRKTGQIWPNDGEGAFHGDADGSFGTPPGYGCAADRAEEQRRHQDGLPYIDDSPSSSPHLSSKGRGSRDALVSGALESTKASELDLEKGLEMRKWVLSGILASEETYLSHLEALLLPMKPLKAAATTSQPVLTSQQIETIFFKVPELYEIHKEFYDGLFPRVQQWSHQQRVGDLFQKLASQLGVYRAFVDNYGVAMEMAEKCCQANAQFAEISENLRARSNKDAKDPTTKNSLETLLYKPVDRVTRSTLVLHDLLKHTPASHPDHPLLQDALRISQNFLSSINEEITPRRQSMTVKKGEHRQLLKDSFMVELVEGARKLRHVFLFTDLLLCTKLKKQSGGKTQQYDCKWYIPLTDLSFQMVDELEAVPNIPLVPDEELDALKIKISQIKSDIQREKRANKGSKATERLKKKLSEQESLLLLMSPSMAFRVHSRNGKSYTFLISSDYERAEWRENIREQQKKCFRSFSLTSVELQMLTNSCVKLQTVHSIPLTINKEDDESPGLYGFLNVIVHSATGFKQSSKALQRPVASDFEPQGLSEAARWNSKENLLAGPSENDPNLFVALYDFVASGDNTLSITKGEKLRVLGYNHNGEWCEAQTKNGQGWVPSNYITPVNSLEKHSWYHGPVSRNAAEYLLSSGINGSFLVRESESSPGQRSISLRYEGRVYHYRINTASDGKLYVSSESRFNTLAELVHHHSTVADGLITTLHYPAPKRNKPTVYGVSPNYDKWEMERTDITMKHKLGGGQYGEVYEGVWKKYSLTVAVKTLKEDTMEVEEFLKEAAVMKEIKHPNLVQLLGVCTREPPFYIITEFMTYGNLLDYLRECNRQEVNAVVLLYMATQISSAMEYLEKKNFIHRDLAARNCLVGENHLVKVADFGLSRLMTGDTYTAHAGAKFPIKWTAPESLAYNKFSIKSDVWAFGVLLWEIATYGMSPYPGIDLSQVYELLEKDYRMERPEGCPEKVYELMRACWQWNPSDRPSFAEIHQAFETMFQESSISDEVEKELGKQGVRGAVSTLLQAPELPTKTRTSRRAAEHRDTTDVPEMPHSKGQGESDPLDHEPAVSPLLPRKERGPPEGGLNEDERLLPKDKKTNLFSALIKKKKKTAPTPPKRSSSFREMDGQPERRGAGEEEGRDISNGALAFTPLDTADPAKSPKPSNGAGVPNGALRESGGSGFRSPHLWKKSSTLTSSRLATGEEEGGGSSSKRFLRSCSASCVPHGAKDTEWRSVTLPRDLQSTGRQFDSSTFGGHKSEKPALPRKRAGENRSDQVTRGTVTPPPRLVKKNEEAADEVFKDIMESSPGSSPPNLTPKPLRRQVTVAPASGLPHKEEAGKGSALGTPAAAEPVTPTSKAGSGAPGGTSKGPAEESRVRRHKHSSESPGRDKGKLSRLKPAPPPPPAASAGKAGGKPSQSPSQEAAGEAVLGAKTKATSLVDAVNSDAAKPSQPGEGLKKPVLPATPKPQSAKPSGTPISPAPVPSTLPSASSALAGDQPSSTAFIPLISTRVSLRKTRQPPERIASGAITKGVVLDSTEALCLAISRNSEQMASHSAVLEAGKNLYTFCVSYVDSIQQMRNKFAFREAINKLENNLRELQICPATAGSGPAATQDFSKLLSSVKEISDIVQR", "assay": "Co-immunoprecipitation: BCR-ABL-mediated association of STIF components", "type": "binding, human", "conditions": "HEK-293 cells, 48 h"}, "endogenous RNA (GAPDH)": {"system": "endogenous RNA (GAPDH)", "assay": "RIP-qPCR: endogenous RNA binding of PABP- and NSP3-fusion proteins", "set-up": "species or system human", "conditions": "3×FLAG-tagged L7Ae-NSP3 vs PABP-L7Ae, 48 h", "excerpt": "RNA immunoprecipitation (RIP)-qPCR."}, "(DocS)3": {"target": "T1, (DocS)3 (Acetivibrio thermocellus, UniProt A3DH67)", "T1 sequence (A3DH67 with tags, fused parts or gaps)": "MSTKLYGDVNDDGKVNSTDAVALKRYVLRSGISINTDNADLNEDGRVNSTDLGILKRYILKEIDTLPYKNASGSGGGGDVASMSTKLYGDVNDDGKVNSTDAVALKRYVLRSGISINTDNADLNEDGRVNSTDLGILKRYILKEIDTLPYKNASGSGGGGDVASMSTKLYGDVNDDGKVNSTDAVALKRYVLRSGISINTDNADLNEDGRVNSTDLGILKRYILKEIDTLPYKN", "assay": "Coh2/DocS-based STIF protein sensor for cytosolic (DocS)3", "conditions": "different amounts of pSL244, 48 h"}},
  "data": [
    {"molecule": "B1", "values": [
      {"measurement": "activation of translation of L7Ae-specific target mRNA (SEAP)", "setting": "nNS3", "result": "in a strict nNS3-dependent manner"}
    ]},
    {"molecule": "B2", "values": [
      {"measurement": "regulation performance (fold-change, dose-dependence, activation kinetics)", "setting": "GNCR: NS3a system", "result": "best regulation performance"}
    ]},
    {"molecule": "B3", "values": [
      {"measurement": "target gene translation by spontaneous STIF assembly (SEAP)", "setting": "[1]", "result": "modular and effective translational regulation"}
    ]},
    {"molecule": "B4", "values": [
      {"measurement": "assembly of STIF components upon BCR-ABL overexpression (co-IP)", "setting": "BCR-ABL", "result": "triggers assembly"}
    ]},
    {"molecule": "B5", "values": [
      {"measurement": "non-specific binding to endogenous RNA (GAPDH RNA IP/input)", "setting": "endogenous RNA (GAPDH)", "result": "much less non-specific binding to endogenous RNA than PABP"}
    ]},
    {"molecule": "B6", "values": [
      {"measurement": "detection of cytosolic (DocS)3 (SEAP)", "setting": "(DocS)3", "result": "in a dose-dependent manner"}
    ]}
  ]
}
